Reference: US20220356245A1 (FORTY SEVEN, published 2022)

How the values were obtained:
[1] = target: T1, human CD47 (hCD47) expressed on cells (human, UniProt Q08722 19-323); experiment: cell-based or functional assay
[2] = target: T1, human CD47 (hCD47) expressed on cells; experiment: flow cytometry, Raji cells
Method: Raji cells (ATCC-CLL-86; 2×10⁵ cells/well of 96-well plate) were first incubated at +4° C. for 30 minutes with serial dilutions of anti-CD47 antibodies or control isotype antibody (in mIgG2a or mIgG1 format). The cells were then washed and incubated for 30 minutes at +4° C. with a PE-conjugated F(ab)′2 goat anti-mouse IgG antibody ( 1/100 dilution, Beckman Coulter). After washings, the fluorescence of the cells was analyzed by flow cytometry on an Accuri-C6 flow cytometer (BD Biosciences).
The delta of MFI, representing the difference between the intensity measured with the tested antibody and the intensity in the absence of antibody, was calculated for each antibody concentration and the values were plotted against the antibody concentrations. The EC50 values were then calculated by using a nonlinear regression analysis model of the GraphPad Prism software.

[3] = target: T2, mouse CD47 (mCD47) expressed on CHO cells (mouse, UniProt Q61735 19-303); experiment: flow cytometry, CHO-mCD47 cells
T2 construct: whole, on cells; also called CHO-mCD47
T2 sequence (looked up): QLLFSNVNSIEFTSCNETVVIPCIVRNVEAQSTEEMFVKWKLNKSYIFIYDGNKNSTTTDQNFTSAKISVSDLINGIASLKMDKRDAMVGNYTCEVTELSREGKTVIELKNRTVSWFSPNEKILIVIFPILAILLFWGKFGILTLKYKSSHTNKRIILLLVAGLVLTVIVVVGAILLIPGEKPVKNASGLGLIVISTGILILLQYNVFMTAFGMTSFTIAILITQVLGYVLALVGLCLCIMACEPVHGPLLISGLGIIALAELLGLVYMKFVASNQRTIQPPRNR

[4] = target: T3, hu-sCD47-6His; extracellular domain of human CD47 antigen with 6His-tag (human); experiment: SPR Biacore T200, antibody captured, hCD47-his analyte;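 also: antibodies captured on anti-IgG (Fc) CM5 chip, five sequential 10 min antigen injections at rising concentrations, reference flow cell and antigen-free cycle as controls, 1:1 model fit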
T3 construct: also called hCD47-his; soluble hCD47

[5] = target: T1, human CD47 (hCD47) expressed on cells; experiment: flow cytometry, hCD47-CHO cells, competition with His-hSIRPα
Method: (§1) Human CD47-transfected cells (3×10⁵ cells/well of 96-well plate) were first incubated at +4° C. for 30 minutes with serial dilutions of anti-CD47 antibodies or isotype control antibody (in mIgG2a or mIgG1 format). […] The percentage inhibition was plotted against antibody concentration and the IC50 values were calculated using a nonlinear regression analysis model of the GraphPad Prism software.

[6] = target: T1, human CD47 (hCD47) expressed on cells; experiment: flow cytometry, hCD47-CHO cells, competition with His-hSIRPα; upper end tied to candidate 33 by Table 5
Method: as §1

Phagocytic index, Raji cells and human macrophages, antibody at 0.125 µg/mL [1]: 71.4 Raji cells ingested per 100 macrophages
EC50 [2]: 0.112 µg/mL
Kd [4]: 0.898 nM
koff [4]: 6.7e-05 s⁻¹
kon [4]: 74600 M⁻¹ s⁻¹
IC50 [5]: 1.11 µg/mL
IC50 [6]: 7.3 nM
B1: Candidate 33 (VL008-AL17-8G5-8K7), mouse IgG (antibody, V domains shown)
VH: LVQLQQSGPELVKPGTSVKISCRSSGYTFTDYYINWVQQRPGQGLEWVGWIFPGSGLTYYNKKFKGKATLSVDKSSNTAYMLLSSLTSEDSAVYFCARPYYGSRWDYTMDYWGQGTSVTVSS
VL: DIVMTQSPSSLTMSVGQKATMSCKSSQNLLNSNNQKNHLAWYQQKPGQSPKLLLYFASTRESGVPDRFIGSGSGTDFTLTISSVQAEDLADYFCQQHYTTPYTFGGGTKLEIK
notes: Recombinant mouse IgG2a or mIgG1 format, by assay
binding result [3]: no binding (tested: 7.3 µg/mL highest concentration)
